Data on 1 protein can be found in PMC3382596, “A Phthalimide Derivative That Inhibits Centrosomal Clustering Is Effective on Multiple Myeloma” (PLoS ONE, 2012).

The series deals with the molecule itself. Nature of the series: SEC; gel filtration of recombinant NPM(1-183) from E. coli to separate oligomeric and monomeric forms; fractions checked by SDS-PAGE with CBB staining. (In general: Size exclusion chromatography separates by hydrodynamic size, large species first.)

B1: Recombinant NPM(1-183), the 183 NH2-terminal amino acids of nucleophosmin 1 (domain or fragment, human, UniProt P06748 1-183, looked up)
chain: MEDSMDMDMSPLRPQNYLFGCELKADKDYHFKVDNDENEHQLSLRTVSLGAGAKDELHIVEAEAMNYEGSPIKVTLATLKMSVQPTVSLGGFEITPPVVLRLKCGSGPVHISGQHLVAVEEDAESEDEEEEDVKLLSISGKRSAPGGGSKVPQKKVKLAADEDDDDDDEEDDDEDDDDDDFDD
notes: nucleophosmin 1 (NPM/B23), clone from a cDNA library of the human multiple myeloma cell line KMS34; also called NPM/B23; 1-183 NPM; source: E. coli, partially purified, fractionated by gel filtration
Take B1: the binding result is “binds”.
